Literature values as cited in paper PMC12564133.
pKd: −log10 of the molar value.

Molecular target: BKCa channel (UniProt Q12791)
UniProt Q12791, sequence (Q12791 whole entry): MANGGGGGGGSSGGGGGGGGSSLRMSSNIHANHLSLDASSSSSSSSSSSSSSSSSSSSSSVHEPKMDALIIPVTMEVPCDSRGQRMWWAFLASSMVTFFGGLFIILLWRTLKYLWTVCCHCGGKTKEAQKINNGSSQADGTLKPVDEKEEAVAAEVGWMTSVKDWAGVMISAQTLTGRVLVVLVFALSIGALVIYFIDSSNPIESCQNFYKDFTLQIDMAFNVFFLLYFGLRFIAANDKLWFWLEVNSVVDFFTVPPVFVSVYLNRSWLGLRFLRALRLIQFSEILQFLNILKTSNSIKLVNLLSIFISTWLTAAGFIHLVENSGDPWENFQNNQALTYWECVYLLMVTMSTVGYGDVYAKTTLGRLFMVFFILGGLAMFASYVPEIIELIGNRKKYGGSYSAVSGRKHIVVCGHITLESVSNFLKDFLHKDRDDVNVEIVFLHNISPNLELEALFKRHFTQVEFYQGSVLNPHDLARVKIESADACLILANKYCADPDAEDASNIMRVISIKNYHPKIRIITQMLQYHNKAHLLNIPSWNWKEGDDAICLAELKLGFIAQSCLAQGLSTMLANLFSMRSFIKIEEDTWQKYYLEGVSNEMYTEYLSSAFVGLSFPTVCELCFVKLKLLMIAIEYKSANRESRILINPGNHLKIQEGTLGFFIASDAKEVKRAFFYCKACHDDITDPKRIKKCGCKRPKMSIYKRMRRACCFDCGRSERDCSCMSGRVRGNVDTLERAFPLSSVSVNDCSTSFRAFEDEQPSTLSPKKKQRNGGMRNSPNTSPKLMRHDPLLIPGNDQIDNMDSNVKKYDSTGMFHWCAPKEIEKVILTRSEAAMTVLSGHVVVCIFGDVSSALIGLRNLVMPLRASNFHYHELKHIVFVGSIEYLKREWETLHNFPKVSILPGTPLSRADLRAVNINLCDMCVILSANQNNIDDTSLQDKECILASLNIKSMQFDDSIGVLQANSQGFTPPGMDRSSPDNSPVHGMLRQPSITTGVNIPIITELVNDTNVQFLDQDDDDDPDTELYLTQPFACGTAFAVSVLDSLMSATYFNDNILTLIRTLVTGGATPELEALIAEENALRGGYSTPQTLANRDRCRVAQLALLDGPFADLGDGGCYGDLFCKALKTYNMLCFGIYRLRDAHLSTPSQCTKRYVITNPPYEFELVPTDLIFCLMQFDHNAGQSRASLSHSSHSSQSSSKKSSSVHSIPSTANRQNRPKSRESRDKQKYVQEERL

Substance: Iberiotoxin (IbTX) (from UniProt P24663)
- pKd: 8.94
